Substrate in series [1]: Nc1ccn(C[C@@H](CO)OCP(=O)(O)O)c(=O)n1
The series can be described thus: cells, lysate or membranes named.

Substrate in series [2]: Nc1ncnc2c1ncn2CCOCP(=O)(O)O
Nature of the series: TP_TRANSPORTER: uptake in OAT1-expressing CHO cells. The series is classed as functional, cell-based.

B1: Solute carrier family 22 member 6 (Homo sapiens) (protein)
chain: MAFNDLLQQVGGVGRFQQIQVTLVVLPLLLMASHNTLQNFTAAIPTHHCRPPADANLSKNGGLEVWLPRDRQGQPESCLRFTSPQWGLPFLNGTEANGTGATEPCTDGWIYDNSTFPSTIVTEWDLVCSHRALRQLAQSLYMVGVLLGAMVFGYLADRLGRRKVLILNYLQTAVSGTCAAFAPNFPIYCAFRLLSGMALAGISLNCMTLNVEWMPIHTRACVGTLIGYVYSLGQFLLAGVAYAVPHWRHLQLLVSAPFFAFFIYSWFFIESARWHSSSGRLDLTLRALQRVARINGKREEGAKLSMEVLRASLQKELTMGKGQASAMELLRCPTLRHLFLCLSMLWFATSFAYYGLVMDLQGFGVSIYLIQVIFGAVDLPAKLVGFLVINSLGRRPAQMAALLLAGICILLNGVIPQDQSIVRTSLAVLGKGCLAASFNCIFLYTGELYPTMIRQTGMGMGSTMARVGSIVSPLVSMTAELYPSMPLFIYGAVPVAASAVTVLLPETLGQPLPDTVQDLESRWAPTQKEAGIYPRKGKQTRQQQEHQKYMVPLQASAQEKNGL
Turning to B1, the figures for the Michaelis constant (Km) in series [1] and in series [2] were 58 µM and 23.8 µM, respectively.

These data come from ChEMBL document CHEMBL2074128, “Cytotoxicity of antiviral nucleotides adefovir and cidofovir is induced by the expression of human renal organic anion transporter 1” (J Am Soc Nephrol, 2000).
